Patent US20240247069A1 (published 2024)

Tests used:
Assay in all cases: Biacore
[1] = target: T1, Human FGFR3b.mmh (REGN3152) (UniProt P22607 23-806)
T1 chain: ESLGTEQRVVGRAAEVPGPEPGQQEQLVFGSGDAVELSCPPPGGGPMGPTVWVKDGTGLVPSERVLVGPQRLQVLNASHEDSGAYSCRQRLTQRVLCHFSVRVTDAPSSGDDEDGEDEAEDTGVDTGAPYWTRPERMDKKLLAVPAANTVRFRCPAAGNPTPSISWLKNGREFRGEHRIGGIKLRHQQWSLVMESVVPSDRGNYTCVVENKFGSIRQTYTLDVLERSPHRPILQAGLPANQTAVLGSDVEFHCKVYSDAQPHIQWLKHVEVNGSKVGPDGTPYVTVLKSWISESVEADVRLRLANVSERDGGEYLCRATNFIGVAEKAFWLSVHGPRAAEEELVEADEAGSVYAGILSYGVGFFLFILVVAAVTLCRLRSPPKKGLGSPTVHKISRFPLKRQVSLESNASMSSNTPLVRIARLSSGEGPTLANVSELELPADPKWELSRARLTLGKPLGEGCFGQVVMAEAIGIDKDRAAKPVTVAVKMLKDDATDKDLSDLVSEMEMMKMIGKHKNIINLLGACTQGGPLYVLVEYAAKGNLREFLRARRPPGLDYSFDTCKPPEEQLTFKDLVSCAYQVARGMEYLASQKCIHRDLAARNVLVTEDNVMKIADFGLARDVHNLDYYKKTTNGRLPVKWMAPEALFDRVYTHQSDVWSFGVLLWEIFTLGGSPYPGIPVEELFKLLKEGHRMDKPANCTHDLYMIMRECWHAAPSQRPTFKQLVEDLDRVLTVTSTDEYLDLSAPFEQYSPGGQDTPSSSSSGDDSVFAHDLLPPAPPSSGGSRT

[2] = target: T2, Mouse FGFR3b.mmh (REGN3215) (UniProt Q61851 21-801)
T2 chain: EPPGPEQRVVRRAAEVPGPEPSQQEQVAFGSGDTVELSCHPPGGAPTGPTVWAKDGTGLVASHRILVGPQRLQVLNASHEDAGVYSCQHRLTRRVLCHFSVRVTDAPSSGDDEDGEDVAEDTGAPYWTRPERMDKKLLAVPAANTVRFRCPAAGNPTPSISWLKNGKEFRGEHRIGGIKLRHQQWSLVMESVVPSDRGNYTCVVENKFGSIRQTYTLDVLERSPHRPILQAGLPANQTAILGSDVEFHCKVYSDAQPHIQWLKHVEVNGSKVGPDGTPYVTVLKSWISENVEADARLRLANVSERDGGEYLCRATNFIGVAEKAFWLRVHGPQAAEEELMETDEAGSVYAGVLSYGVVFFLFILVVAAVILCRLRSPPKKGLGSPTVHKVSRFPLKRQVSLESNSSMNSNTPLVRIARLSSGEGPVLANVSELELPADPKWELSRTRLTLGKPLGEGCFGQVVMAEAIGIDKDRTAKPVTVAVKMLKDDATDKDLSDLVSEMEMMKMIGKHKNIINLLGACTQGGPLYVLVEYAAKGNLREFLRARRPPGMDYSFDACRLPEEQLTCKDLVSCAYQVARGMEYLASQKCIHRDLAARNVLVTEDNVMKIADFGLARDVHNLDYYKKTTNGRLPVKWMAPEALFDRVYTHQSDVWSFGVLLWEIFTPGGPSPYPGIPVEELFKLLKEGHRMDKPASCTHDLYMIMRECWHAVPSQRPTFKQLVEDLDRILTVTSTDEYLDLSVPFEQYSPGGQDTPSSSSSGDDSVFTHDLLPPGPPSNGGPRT

Mouse FGFR3b = target: T3, Mouse FGFR3b (UniProt Q61851 21-801)
T3 chain: T2 chain

Human FGFR3b = target: T4, Human FGFR3b (UniProt P22607 23-806)
T4 chain: T1 chain

B1: mAb063 (antibody, V domains shown)
VH: QVQLQESGPGLVKPSETLSLTCTVSGDSINSYFWSWIRQLPGKELEWIGHIYSSGSTRYNPSLQSRVTISIDTSKNQFSLKLSSVTAADTAVYYCARGASAVDYWGQGTLVTVSS
VL: EIVLTQSPGTLSLSPGERATLSCRTSQSISSGYLAWYQQKPGQAPRLLIYGASRRATGIPDRFSGSGSGTDFTLTISRLEPEDFVVYYCQQYGSSPYTFGQGTKLEIKR
[1]
  Kd: 2.59 nM
[2]
  Kd: 1.4 nM
Mouse FGFR3b
  Kd: 1.4 nM
Human FGFR3b
  Kd: 2.59 nM
